Source: patent US20220251166A1 (Chugai, published 2022)

Molecular target: human CD3 on Jurkat luciferase reporter T cells (human)
Assay: cell-based or functional assay

Row | relative luciferase activity (fold, maximum), Jurkat luciferase reporter T cells co-cultured with dead (MTX treated) Ba/F3 cells [fold] | relative luciferase signal (fold induction), Jurkat luciferase reporter T cells co-cultured with live (untreated) Ba/F3 cells [fold] | Binder | also measured
1 | – | – | TR01H113-mF18/TR01L0011-mk1 (anti-CD3) (antibody, mouse IgG1, kappa) heavy: QVQLVESGGGVVQPGGSLRLSCAASGFTFSNAWMHWVRQAPGKGLEWVAQIKDKSQNYATYVAESVKGRFTISRADSKNSIYLQMNSLKTEDTAVYYCRYVHYAAGYGVDIWGQGTTVTVSSAKTTPPSVYPLAPGSAAQTNSMVTLGCLVKGYFPEPVTVTWNSGSLSSGVHTFPAVLQSDLYTLSSSVTVPSSTWPSETVTCNVAHPASSTKVDKKIVPRDCGCKPCICTVKEVSKVFIFPPKPKDVLTITLTPKVTCVVVDISKDDPEVQFSWFVDDVEVHTAQTQPREEQFNSTFRSVSELPIMHQDWLNGKEFKCRVNSAAFPAPIEKTISKTKGRPKAPQVYTIPPPKEQMAKDKVSLTCMITDFFPEDITVEWQWNGQPAENYKNTQPIMDTDGSYFVYSKLNVQKSNWEAGNTFTCSVLHEGLHNHHTEKSLSHSPGK light: DIVMTQSPLSLPVTPGEPASISCRSSQPLVHSNRNTYLHWYQQKPGQAPRLLIYKVSNRFSGVPDRFSGSGSGTDFTLKISRVEAEDVGVYYCGQGTQVPYTFGQGTKLEIKRADAAPTVSIFPPSSEQLTSGGASVVCFLNNFYPKDINVKWKIDGSERQNGVLNSWTDQDSKDSTYSMSSTLTLTKDEYERHNSYTCEATHKTSTSPIVKSFNRNEC | relative fold induction of luciferase, Jurkat luciferase reporter T cells co-cultured with dead (MTX treated) Ba/F3 cells: ~20 fold; relative luciferase signal (fold induction, maximum), Jurkat luciferase reporter T cells co-cultured with live (untreated) Ba/F3 cells: ~22 fold
2 | – | – | TX_3G4VH-mBS1001b/3G4VL-mk1//TR01H113-mBS1001a/TR01L0011-mk1 (anti-PS(3G4)//CD3) (bispecific antibody, mouse IgG1, kappa) heavy 1: EVQLQQSGPELEKPGASVKLSCKASGYSFTGYNMNWVKQSHGKSLEWIGHIDPYYGDTSYNQKFRGKATLTVDKSSSTAYMQLKSLTSEDSAVYYCVKGGYYGHWYFDVWGAGTTVTVSSAKTTPPSVYPLAPGSAAQTNSMVTLGCLVKGYFPEPVTVTWNSGSLSSGVHTFPAVLQSDLYTLSSSVTVPSSTWPSETVTCNVAHPASSTKVDKKIVPRDCGCKPCICTVKEVSKVFIFPPKPKDVLTITLTPKVTCVVVDISKDDPEVQFSWFVDDVEVHTAQTQPREEQFNSTFRSVSELPIMHQDWLNGKEFKCRVNSAAFPAPIEKTISKTKGRPKAPQVYTIPPPKEQMAKDKVSLTCMITDFFPEDITVEWQWNGQPAENYKNTQPIMRTDGSYFVYSKLNVQKSNWEAGNTFTCSVLHEGLHNHHTEKSLSHSPGK light 1: DIQMTQSPSSLSASLGERVSLTCRASQDIGSSLNWLQQGPDGTIKRLIYATSSLDSGVPKRFSGSRSGSDYSLTISSLESEDFVDYYCLQYVSSPPTFGAGTKLELKRADAAPTVSIFPPSSEQLTSGGASVVCFLNNFYPKDINVKWKIDGSERQNGVLNSWTDQDSKDSTYSMSSTLTLTKDEYERHNSYTCEATHKTSTSPIVKSFNRNEC heavy 2: QVQLVESGGGVVQPGGSLRLSCAASGFTFSNAWMHWVRQAPGKGLEWVAQIKDKSQNYATYVAESVKGRFTISRADSKNSIYLQMNSLKTEDTAVYYCRYVHYAAGYGVDIWGQGTTVTVSSAKTTPPSVYPLAPGSAAQTNSMVTLGCLVKGYFPEPVTVTWNSGSLSSGVHTFPAVLQSDLYTLSSSVTVPSSTWPSETVTCNVAHPASSTKVDKKIVPRDCGCKPCICTVKEVSKVFIFPPKPKDVLTITLTPKVTCVVVDISKDDPEVQFSWFVDDVEVHTAQTQPREEQFNSTFRSVSELPIMHQDWLNGKEFKCRVNSAAFPAPIEKTISKTKGRPKAPQVYTIPPPKEQMAKDKVSLTCMITDFFPEDITVEWQWNGQPAENYKNTQPIMDTDGSYFVYSELNVQKSNWEAGNTFTCSVLHEGLHNHHTEKSLSHSPGK light 2: DIVMTQSPLSLPVTPGEPASISCRSSQPLVHSNRNTYLHWYQQKPGQAPRLLIYKVSNRFSGVPDRFSGSGSGTDFTLKISRVEAEDVGVYYCGQGTQVPYTFGQGTKLEIKRADAAPTVSIFPPSSEQLTSGGASVVCFLNNFYPKDINVKWKIDGSERQNGVLNSWTDQDSKDSTYSMSSTLTLTKDEYERHNSYTCEATHKTSTSPIVKSFNRNEC | luciferase signal (fold induction) at 5 nM antibody, Jurkat reporter T cells co-cultured with dead Ba/F3 cells: 16 fold; luciferase signal (fold induction) at 25 nM antibody, Jurkat reporter T cells co-cultured with dead Ba/F3 cells: 70 fold
3 | ~54 | ~5 | TR01H113-mF18.G3S2.mC9ECD57/TR01L0011-mk1 (anti-CD3-Clec9A ECD) (antibody, mouse IgG1, kappa) heavy: QVQLVESGGGVVQPGGSLRLSCAASGFTFSNAWMHWVRQAPGKGLEWVAQIKDKSQNYATYVAESVKGRFTISRADSKNSIYLQMNSLKTEDTAVYYCRYVHYAAGYGVDIWGQGTTVTVSSAKTTPPSVYPLAPGSAAQTNSMVTLGCLVKGYFPEPVTVTWNSGSLSSGVHTFPAVLQSDLYTLSSSVTVPSSTWPSETVTCNVAHPASSTKVDKKIVPRDCGCKPCICTVKEVSKVFIFPPKPKDVLTITLTPKVTCVVVDISKDDPEVQFSWFVDDVEVHTAQTQPREEQFNSTFRSVSELPIMHQDWLNGKEFKCRVNSAAFPAPIEKTISKTKGRPKAPQVYTIPPPKEQMAKDKVSLTCMITDFFPEDITVEWQWNGQPAENYKNTQPIMDTDGSYFVYSKLNVQKSNWEAGNTFTCSVLHEGLHNHHTEKSLSHSPGKGGGSGGGSKFFQVSSLVLEQQERLIQQDTALVNLTQWQRKYTLEYCQALLQRSLHSGTDASTGPVLLTSPQMVPQTLDSKETGSDCSPCPHNWIQNGKSCYYVFERWEMWNISKKSCLKEGASLFQIDSKEEMEFISSIGKLKGGNKYWVGVFQDGISGSWFWEDGSSPLSDLLPAERQRSAGQICGYLKDSTLISDKCDSWKYFICEKKAFGSCI light: DIVMTQSPLSLPVTPGEPASISCRSSQPLVHSNRNTYLHWYQQKPGQAPRLLIYKVSNRFSGVPDRFSGSGSGTDFTLKISRVEAEDVGVYYCGQGTQVPYTFGQGTKLEIKRADAAPTVSIFPPSSEQLTSGGASVVCFLNNFYPKDINVKWKIDGSERQNGVLNSWTDQDSKDSTYSMSSTLTLTKDEYERHNSYTCEATHKTSTSPIVKSFNRNEC | –
4 | ~46 | ~5 | TR01H113-mF18.G3S2.mC9.131/TR01L0011-mk1 (anti-CD3-Clec9A CTLD) (antibody, mouse IgG1, kappa) heavy: QVQLVESGGGVVQPGGSLRLSCAASGFTFSNAWMHWVRQAPGKGLEWVAQIKDKSQNYATYVAESVKGRFTISRADSKNSIYLQMNSLKTEDTAVYYCRYVHYAAGYGVDIWGQGTTVTVSSAKTTPPSVYPLAPGSAAQTNSMVTLGCLVKGYFPEPVTVTWNSGSLSSGVHTFPAVLQSDLYTLSSSVTVPSSTWPSETVTCNVAHPASSTKVDKKIVPRDCGCKPCICTVKEVSKVFIFPPKPKDVLTITLTPKVTCVVVDISKDDPEVQFSWFVDDVEVHTAQTQPREEQFNSTFRSVSELPIMHQDWLNGKEFKCRVNSAAFPAPIEKTISKTKGRPKAPQVYTIPPPKEQMAKDKVSLTCMITDFFPEDITVEWQWNGQPAENYKNTQPIMDTDGSYFVYSKLNVQKSNWEAGNTFTCSVLHEGLHNHHTEKSLSHSPGKGGGSGGGSGSDCSPCPHNWIQNGKSCYYVFERWEMWNISKKSCLKEGASLFQIDSKEEMEFISSIGKLKGGNKYWVGVFQDGISGSWFWEDGSSPLSDLLPAERQRSAGQICGYLKDSTLISDKCDSWKYFICEKKAFGSCI light: DIVMTQSPLSLPVTPGEPASISCRSSQPLVHSNRNTYLHWYQQKPGQAPRLLIYKVSNRFSGVPDRFSGSGSGTDFTLKISRVEAEDVGVYYCGQGTQVPYTFGQGTKLEIKRADAAPTVSIFPPSSEQLTSGGASVVCFLNNFYPKDINVKWKIDGSERQNGVLNSWTDQDSKDSTYSMSSTLTLTKDEYERHNSYTCEATHKTSTSPIVKSFNRNEC | –
